Measurements from patent US20230157952A1, “METHOD FOR IMPROVING THE STABILITY OF A PHARMACEUTICAL COMPOSITION COMPRISING A HIGH PENETRATION DRUG, AND THE PHARMACEUTICAL COMPOSITION OBTAINED THEREFROM” (Techfields Inc., priority 2020, published 2023).
Non-standard residues stand in square brackets, D forms with d. Arg(NO2) = N=C(NCCC[C@H](N)C(=O)O)N[N+](=O)[O-]

Assay: Effect of pH value on the stability of the solution (purity)
Type: physicochemical
Settings: for Purity(%) from day 0-28 / Purity(%) from day 0-14: 25° C.; for Purity(%) at day 1 / Purity(%) at day 30 / Purity(%) at day 90 / Purity(%) at day 180 / Purity(%) at day 360: 5% solution
[1] = 25% ethanol (after multiple recrystalization), pH 3.7, 25° C.
[2] = 25% ethanol with 0.5 equivalent sodium acetate, pH 3.7, 25° C.
[3] = 25% ethanol with 1 equivalent sodium acetate, pH 4.6, 25° C.
[4] = 25% ethanol with 1.5 equivalent sodium acetate, pH 5.6, 25° C.
[5] = 25% ethanol with HCl, pH 2.0, 25° C.
[6] = 25% ethanol with NaOH, pH 7, 25° C.
[7] = 25% ethanol with NaOH, pH 8, 25° C.

In the case of CC(C)Cc1ccc(C(C)C(=O)OCCN2CCCCC2)cc1.Cl (racemic) [C-10, 1-piperidineethyl (R,S)-2-(p-isobutylphenyl)propionate•HCl salt], the “Purity(%) from day 0-28” value (day 0, pH 1.0, 7% in 25% ethanol) is reported as 97.6 ± 0.3%, the “Purity(%) from day 0-28” value (day 0, pH 2.0, 7% in 25% ethanol) is reported as 97.9 ± 0.4% and the “Purity(%) from day 0-28” value (day 0, pH 3.0, 7% in 25% ethanol) is reported as 98.0 ± 0.3%. The “Purity(%) from day 0-28” value (day 0, pH 3.7, 7% in 25% ethanol) was 98.2 ± 0.3%, the “Purity(%) from day 0-28” value (day 0, pH 4.0, 7% in 25% ethanol) was 98.2 ± 0.2% and the “Purity(%) from day 0-28” value (day 0, pH 4.3, 7% in 25% ethanol) was 98.3 ± 0.3%. For the same molecule, the “Purity(%) from day 0-28” value (day 0, pH 4.6, 7% in 25% ethanol) was 98.2 ± 0.4%, the “Purity(%) from day 0-28” value (day 0, pH 5.0, 7% in 25% ethanol) was 98.2 ± 0.3% and the “Purity(%) from day 0-28” value (day 0, pH 6.0, 7% in 25% ethanol) was 98.1 ± 0.3%. For the same molecule, the “Purity(%) from day 0-28” value (day 0, pH 7.0, 7% in 25% ethanol) was 97.8 ± 0.3%, the “Purity(%) from day 0-28” value (day 0, pH 8.0, 7% in 25% ethanol) was 97.5 ± 0.5% and the “Purity(%) from day 0-28” value (day 28, pH 1.0, 7% in 25% ethanol) was 68.1 ± 0.3%. The “Purity(%) from day 0-28” value (day 28, pH 2.0, 7% in 25% ethanol) was 87.0 ± 0.3%, the “Purity(%) from day 0-28” value (day 28, pH 3.0, 7% in 25% ethanol) was 87.0 ± 0.2% and the “Purity(%) from day 0-28” value (day 28, pH 3.7, 7% in 25% ethanol) was 95.1 ± 0.3%. The “Purity(%) from day 0-28” value (day 28, pH 4.0, 7% in 25% ethanol) was 95.8 ± 0.3%, the “Purity(%) from day 0-28” value (day 28, pH 4.3, 7% in 25% ethanol) was 95.9 ± 0.2% and the “Purity(%) from day 0-28” value (day 28, pH 4.6, 7% in 25% ethanol) was 95.8 ± 0.3%. The “Purity(%) from day 0-28” value (day 28, pH 5.0, 7% in 25% ethanol) was 88.5 ± 0.4%, the “Purity(%) from day 0-28” value (day 28, pH 6.0, 7% in 25% ethanol) was 87.9 ± 0.3% and the “Purity(%) from day 0-28” value (day 28, pH 7.0, 7% in 25% ethanol) was 47.8 ± 0.3%. For the same molecule, the “Purity(%) from day 0-28” value (day 28, pH 8.0, 7% in 25% ethanol) was 34.1 ± 0.4%.
In the case of CCN(CC)CCOC(=O)c1ccccc1OC(C)=O.O=C(O)/C=C\C(=O)O [A-1, 2-(diethylamino)ethyl acetylsalicylate•maleic acid salt], the “Purity(%) from day 0-14” value (day 14, pH 1.0, 7% in water) is reported as 59.1 ± 0.4%, the “Purity(%) from day 0-14” value (day 14, pH 2.0, 7% in water) is reported as 78.8 ± 0.3% and the “Purity(%) from day 0-14” value (day 14, pH 3.0, 7% in water) is reported as 90.9 ± 0.2%. The “Purity(%) from day 0-14” value (day 14, pH 3.7, 7% in water) was 94.0 ± 0.3%, the “Purity(%) from day 0-14” value (day 14, pH 4.0, 7% in water) was 94.5 ± 0.2% and the “Purity(%) from day 0-14” value (day 14, pH 4.3, 7% in water) was 94.6 ± 0.3%. The “Purity(%) from day 0-14” value (day 14, pH 4.6, 7% in water) was 94.3 ± 0.2%, the “Purity(%) from day 0-14” value (day 14, pH 5.0, 7% in water) was 86.9 ± 0.3% and the “Purity(%) from day 0-14” value (day 14, pH 6.0, 7% in water) was 78.9 ± 0.3%. The “Purity(%) from day 0-14” value (day 14, pH 7.0, 7% in water) was 57.8 ± 0.4% and the “Purity(%) from day 0-14” value (day 14, pH 8.0, 7% in water) was 16.1 ± 0.4%.
With “H-Ala-Pro-Gly-Pro-Arg(NO2)—OCH2CH3•HCl salt (H-APGP[Arg(NO2)]-OEt; also: HCl salt)” the “Purity(%) at day 1” value [1] was 98.1 ± 0.2%, the “Purity(%) at day 30” value [1] was 97.3 ± 0.2% and the “Purity(%) at day 90” value [1] was 95.0 ± 0.1%. The “Purity(%) at day 180” value [1] was 91.2 ± 0.3%, the “Purity(%) at day 1” value [2] was 98.2 ± 0.1% and the “Purity(%) at day 30” value [2] was 97.4 ± 0.2%. For the same molecule, the “Purity(%) at day 90” value [2] was 95.1 ± 0.3%, the “Purity(%) at day 180” value [2] was 91.2 ± 0.3% and the “Purity(%) at day 1” value [3] was 98.2 ± 0.2%. The “Purity(%) at day 30” value [3] was 97.3 ± 0.2%, the “Purity(%) at day 90” value [3] was 95.0 ± 0.3% and the “Purity(%) at day 180” value [3] was 91.1 ± 0.3%. The “Purity(%) at day 1” value [4] was 98.1 ± 0.2%, the “Purity(%) at day 30” value [4] was 94.7 ± 0.2% and the “Purity(%) at day 90” value [4] was 91.5 ± 0.3%. For the same molecule, the “Purity(%) at day 180” value [4] was 83.7 ± 0.3%, the “Purity(%) at day 1” value [5] was 97.8 ± 0.1% and the “Purity(%) at day 30” value [5] was 84.2 ± 0.2%. The “Purity(%) at day 90” value [5] was 69.6 ± 0.2%, the “Purity(%) at day 180” value [5] was 39.9 ± 0.3% and the “Purity(%) at day 1” value [6] was 97.9 ± 0.2%. The “Purity(%) at day 30” value [6] was 55.2 ± 0.3%, the “Purity(%) at day 90” value [6] was 31.3 ± 0.3% and the “Purity(%) at day 180” value [6] was 0%. The “Purity(%) at day 1” value [7] was 97.5 ± 0.1%, the “Purity(%) at day 30” value [7] was 22.6 ± 0.2% and the “Purity(%) at day 90” value [7] was 0%. For the same molecule, the “Purity(%) at day 180” value [7] was 0%, the “Purity(%) at day 1” value (25% ethanol, pH 3.0, 25° C.) was 98.1 ± 0.2% and the “Purity(%) at day 30” value (25% ethanol, pH 3.0, 25° C.) was 95.7 ± 0.3%. For the same molecule, the “Purity(%) at day 90” value (25% ethanol, pH 3.0, 25° C.) was 92.8 ± 0.3% and the “Purity(%) at day 180” value (25% ethanol, pH 3.0, 25° C.) was 86.0 ± 0.3%.
With “H-Tyr-Gly-Gly-Phe-Met-OCH(CH3)2•HCl salt” the “Purity(%) at day 1” value [1] was 98.9 ± 0.2%, the “Purity(%) at day 30” value [1] was 98.3 ± 0.2% and the “Purity(%) at day 90” value [1] was 97.2 ± 0.1%. The “Purity(%) at day 180” value [1] was 95.4 ± 0.1%, the “Purity(%) at day 360” value [1] was 92.3 ± 0.2% and the “Purity(%) at day 1” value [2] was 98.9 ± 0.1%. For the same molecule, the “Purity(%) at day 30” value [2] was 98.4 ± 0.1%, the “Purity(%) at day 90” value [2] was 97.3 ± 0.2% and the “Purity(%) at day 180” value [2] was 95.5 ± 0.2%. The “Purity(%) at day 360” value [2] was 92.5 ± 0.2%, the “Purity(%) at day 1” value [3] was 98.9 ± 0.2% and the “Purity(%) at day 30” value [3] was 98.4 ± 0.2%. The “Purity(%) at day 90” value [3] was 97.4 ± 0.2%, the “Purity(%) at day 180” value [3] was 95.5 ± 0.2% and the “Purity(%) at day 360” value [3] was 92.4 ± 0.2%. For the same molecule, the “Purity(%) at day 1” value [4] was 98.8 ± 0.2%, the “Purity(%) at day 30” value [4] was 97.2 ± 0.2% and the “Purity(%) at day 90” value [4] was 94.1 ± 0.1%. The “Purity(%) at day 180” value [4] was 88.7 ± 0.2%, the “Purity(%) at day 360” value [4] was 81.1 ± 0.3% and the “Purity(%) at day 1” value [5] was 98.5 ± 0.1%. For the same molecule, the “Purity(%) at day 30” value [5] was 92.1 ± 0.2%, the “Purity(%) at day 90” value [5] was 85.1 ± 0.2% and the “Purity(%) at day 180” value [5] was 71.9 ± 0.2%. For the same molecule, the “Purity(%) at day 360” value [5] was 51.8 ± 0.2%, the “Purity(%) at day 1” value [6] was 98.5 ± 0.3% and the “Purity(%) at day 30” value [6] was 77.9 ± 0.2%. For the same molecule, the “Purity(%) at day 90” value [6] was 43.6 ± 0.2%, the “Purity(%) at day 180” value [6] was 24.3 ± 0.3% and the “Purity(%) at day 360” value [6] was 0%. The “Purity(%) at day 1” value [7] was 98.2 ± 0.2%, the “Purity(%) at day 30” value [7] was 56.2 ± 0.2% and the “Purity(%) at day 90” value [7] was 33.3 ± 0.3%. The “Purity(%) at day 180” value [7] was 5.8 ± 0.3%, the “Purity(%) at day 360” value [7] was 0% and the “Purity(%) at day 1” value (25% ethanol, pH 3.0, 25° C.) was 98.7 ± 0.2%. The “Purity(%) at day 30” value (25% ethanol, pH 3.0, 25° C.) was 97.9 ± 0.2%, the “Purity(%) at day 90” value (25% ethanol, pH 3.0, 25° C.) was 95.1 ± 0.1% and the “Purity(%) at day 180” value (25% ethanol, pH 3.0, 25° C.) was 90.9 ± 0.2%. The “Purity(%) at day 360” value (25% ethanol, pH 3.0, 25° C.) was 82.8 ± 0.3%.
